Results taken from patent US5580955A, “Fragments of neurofibromin (NF1) and method to reverse activated ras induced malignant transformation in mammalian cells” (Ludwig Institute for Cancer Research, priority 1995, dated 1996).
“Also recorded” adds a separate entry of the source.

Key:
[1] = test system: V-HaRas transformed NIH/3T3 cells; assay: soft agar colony (SAC) formation by V-HaRas transformed NIH/3T3 cells transfected with NF1 fragment plasmids; assay type: cell-based; settings: for SAC (%), relative soft agar colony forming ability: non-transfected clone #0 = 100; for Colonies/10^3 cells (number of colonies found in soft agar): 1000 cells per plate, 37° C., three weeks; for ability to form soft agar colonies (in words): compared with non-transfected parental V-HaRas transformed cells
Method: The transfectants were then cloned in the presence of a neomycin analogue, i.e., G418 at 400 ug/ml. The transfectants were initially screened for viability in the G418 medium, following Maruta et al., supra., and Nur-E.-Kamal et al., supra.
After the transfectants were screened for viability, the ability of the parental clone and each surviving transfectant to form soft agar colonies (SAC) were then examined by incubating 1000 cells per plate at 37° C. for three weeks under standard culture conditions, as described in Maruta et al., supra.

c-HaRas protein = assay: Ras GTPase stimulating activity: hydrolysis of [gamma-32P] GTP bound to c-HaRas protein, by GST fusion NF1 mutants; assay type: biochemical, murine; settings: for Activation (fold), Ras GTPase activation: 20 ug/ml NF1 mutants; for Activation (fold), Ras GTPase activation / EC50, concentration required for 50% hydrolysis of GTP bound Ras: 25° C., 20 minutes
Excerpt: N- and C- terminal deletion mutants were constructed by subcloning the corresponding PCR DNA fragments into the bacterial expression vector pGEX-2TH, as described in Maruta et al., supra. FIG. 4 sets forth the DNA fragments inserted into the expression vector. The number following NF of each mutant indicates the total amino acid residues included. The DNA fragments inserted include the DNA for human type I NF357, human type II NF1-GRD (amino acid residues 1355 to 1531 in addition to the insert of 21 amino acids) and murine c-HaRas (residues 1-189). The type II-specific insert of 21 amino acids is indicated by the number 21 above a triangle following codon 1371. This 21 amino acid insert is set forth in SEQ ID NO: 2. The solid rectangle indicates the GAP active center of 56 amino acids, whereas the shaded rectangle indicates a supporting domain of 22 amino acids.
The expression vectors were transfected into E.coli and the protein expressed as GST fusion proteins. The fusion proteins were thereafter purified from E.coli as glutathione S-transfeRase fusion proteins and affinity-purified on a glutathione (GSH)-agarose column, as described in Maruta, et al., supra.
The purified proteins were then screened for Ras GTPase stimulating activity. The assay was carried out for each of the NF357 deletion mutants.
The hydrolysis of [gamma-^32 P] GTP bound to c-HaRas protein was determined by incubating with bound protein at 25° C. for 20 minutes in the presence or absence of each NF1 mutant preparation in 100 ul of a buffer containing 50 mMTris-HCl, pH 7.5, 15 mMMgCl2, 2.5 mM EDTA, 3 mM ATP, 1 mM dithiothreitol (DTT) and 0.5 mg/ml bovine serum albumin (BSA), then precipitating the unhydrolyzed [gamma-32P] GTP with charcoal, and finally measuring the radioactivity of the [gamma-32P] inorganic phosphate in the supernatant, as described previously, Maruta et al., supra. Protein concentrations were determined by the Bradford method with BSA as a standard.

[2] = test system: V-HaRas transformed NIH/3T3 cells; assay: morphology of V-HaRas transformed NIH/3T3 cells overexpressing NF1 fragments; assay type: cell-based; settings: liquid culture, compared with parental V-HaRas transformed cells
[3] = clones with relatively high (H) mRNA level
[4] = clones with relatively high (H) steady-state mRNA level
[5] = clone #8, relatively low (L) steady-state mRNA level

Molecule	Ras GTPase stimulation (in words) (c-HaRas protein)	Activation (fold), Ras GTPase activation (c-HaRas protein) [fold]	EC50, concentration required for 50% hydrolysis of GTP bound Ras (c-HaRas protein) [µg/mL]	further results
NF56: NF1 fragment, amino acid residues 1441 to 1496 (RPFNDFVKSNFDAARRFFLDIASDCPTSDAVNHSLSFISDGNVLALHRLLWNNQEK)	no longer able to stimulate Ras GTPase activity; also recorded: cannot stimulate; also recorded: does not stimulate GTPase activity; also recorded: not capable of GTPase activation	0		reversion of activated Ras induced transformation (in words) ([1]; expression of the fragment in transformed cells): leads to reversion of activated Ras induced transformation; also recorded: capable of reversing Ras transformation
NF357: NF1 fragment, amino acid residues 1175-1531 of human type I neurofibromin (protein, UniProt P21359 1175-1531, looked up, fragment) TRATFMEVLTKILQQGTEFDTLAETVLADRFERLVELVTMMGDQGELPIAMALANVVPCSQWDELARVLVTLFDSRHLLYQLLWNMFSKEVELADSMQTLFRGNSLASKIMTFCFKVYGATYLQKLLDPLLRIVITSSDWQHVSFEVDPTRLEPSESLEENQRNLLQMTEKFFHAIISSSSEFPPQLRSVCHCLYQATCHSLLNKATVKEKKENKKSVVSQRFPQNSIGAVGSAMFLRFINPAIVSPYEAGILDKKPPPRIERGLKLMSKILQSIANHVLFTKEEHMRPFNDFVKSNFDAARRFFLDIASDCPTSDAVNHSLSFISDGNVLALHRLLWNNQEKIGQYLSSNRDHKAV		14	0.50	GTPase activity, times more active than NF91 (c-HaRas protein): twenty
NF 342: NF1 fragment, residues 1190-1531 (protein, UniProt P21359 1190-1531, looked up, fragment) GTEFDTLAETVLADRFERLVELVTMMGDQGELPIAMALANVVPCSQWDELARVLVTLFDSRHLLYQLLWNMFSKEVELADSMQTLFRGNSLASKIMTFCFKVYGATYLQKLLDPLLRIVITSSDWQHVSFEVDPTRLEPSESLEENQRNLLQMTEKFFHAIISSSSEFPPQLRSVCHCLYQATCHSLLNKATVKEKKENKKSVVSQRFPQNSIGAVGSAMFLRFINPAIVSPYEAGILDKKPPPRIERGLKLMSKILQSIANHVLFTKEEHMRPFNDFVKSNFDAARRFFLDIASDCPTSDAVNHSLSFISDGNVLALHRLLWNNQEKIGQYLSSNRDHKAV		14	0.52	
NF 327: NF1 fragment, residues 1205-1531 (protein, UniProt P21359 1205-1531, looked up, fragment) FERLVELVTMMGDQGELPIAMALANVVPCSQWDELARVLVTLFDSRHLLYQLLWNMFSKEVELADSMQTLFRGNSLASKIMTFCFKVYGATYLQKLLDPLLRIVITSSDWQHVSFEVDPTRLEPSESLEENQRNLLQMTEKFFHAIISSSSEFPPQLRSVCHCLYQATCHSLLNKATVKEKKENKKSVVSQRFPQNSIGAVGSAMFLRFINPAIVSPYEAGILDKKPPPRIERGLKLMSKILQSIANHVLFTKEEHMRPFNDFVKSNFDAARRFFLDIASDCPTSDAVNHSLSFISDGNVLALHRLLWNNQEKIGQYLSSNRDHKAV		14	0.40	
NF 326: NF1 fragment, residues 1206-1531 (protein, UniProt P21359 1206-1531, looked up, fragment) ERLVELVTMMGDQGELPIAMALANVVPCSQWDELARVLVTLFDSRHLLYQLLWNMFSKEVELADSMQTLFRGNSLASKIMTFCFKVYGATYLQKLLDPLLRIVITSSDWQHVSFEVDPTRLEPSESLEENQRNLLQMTEKFFHAIISSSSEFPPQLRSVCHCLYQATCHSLLNKATVKEKKENKKSVVSQRFPQNSIGAVGSAMFLRFINPAIVSPYEAGILDKKPPPRIERGLKLMSKILQSIANHVLFTKEEHMRPFNDFVKSNFDAARRFFLDIASDCPTSDAVNHSLSFISDGNVLALHRLLWNNQEKIGQYLSSNRDHKAV		11	1.5	
NF91: NF1 fragment, amino acid residues 1441 to 1531; GST fusion in Table II, expressed from pMV7 plasmid in cells (protein, UniProt P21359 1441-1531, looked up, fragment, GST fusion) LMSKILQSIANHVLFTKEEHMRPFNDFVKSNFDAARRFFLDIASDCPTSDAVNHSLSFISDGNVLALHRLLWNNQEKIGQYLSSNRDHKAV	still stimulated Ras GTPase activity; also recorded: still able to stimulate normal Ras GTPase activity	10	10	SAC (%), relative soft agar colony forming ability [1, 3]: 0%; Colonies/10^3 cells (number of colonies found in soft agar) [1, 4]: 0 Colonies/10^3 cells; ability to form soft agar colonies (in words) [1]: no longer able to form any soft agar colonies; cell morphology [2]: morphologically flat; cell morphology ([2]; listed as NF91 (Sense)): Flat; efficiency of Ras GTPase stimulation, times less efficient compared to NF342 / NF357 (c-HaRas protein): twenty
NF 80: NF1 fragment, residues 1452-1531 (protein, UniProt P21359 1452-1531, looked up, fragment) HVLFTKEEHMRPFNDFVKSNFDAARRFFLDIASDCPTSDAVNHSLSFISDGNVLALHRLLWNNQEKIGQYLSSNRDHKAV		0		
NF 292: NF1 fragment, residues 1205-1496 (protein, UniProt P21359 1205-1496, looked up, fragment) FERLVELVTMMGDQGELPIAMALANVVPCSQWDELARVLVTLFDSRHLLYQLLWNMFSKEVELADSMQTLFRGNSLASKIMTFCFKVYGATYLQKLLDPLLRIVITSSDWQHVSFEVDPTRLEPSESLEENQRNLLQMTEKFFHAIISSSSEFPPQLRSVCHCLYQATCHSLLNKATVKEKKENKKSVVSQRFPQNSIGAVGSAMFLRFINPAIVSPYEAGILDKKPPPRIERGLKLMSKILQSIANHVLFTKEEHMRPFNDFVKSNFDAARRFFLDIASDCPTSDAVNHSL	stimulate normal Ras GTPase activity	11	7.5	
NF 266: NF1 fragment, residues 1175-1440 (protein, UniProt P21359 1175-1440, looked up, fragment) TRATFMEVLTKILQQGTEFDTLAETVLADRFERLVELVTMMGDQGELPIAMALANVVPCSQWDELARVLVTLFDSRHLLYQLLWNMFSKEVELADSMQTLFRGNSLASKIMTFCFKVYGATYLQKLLDPLLRIVITSSDWQHVSFEVDPTRLEPSESLEENQRNLLQMTEKFFHAIISSSSEFPPQLRSVCHCLYQATCHSLLNKATVKEKKENKKSVVSQRFPQNSIGAVGSAMFLRFINPAIVSPYEAGILDKKPPPRIERGLK		0		
NF338: NF1 protein fragment, amino acid residues 1194 to 1531, expressed from retroviral vector pMV7 (protein) DTLAETVLADRFERLVELVTMMGDQGELPIAMALANVVPCSQWDELARVLVTLFDSRHLLYQLLWNMFSKEVELADSMQTLFRGNSLASKIMTFCFKVYGATYLQKLLDPLLRIVITSSDWQHVSFEVDPTRLEPSESLEENQRNLLQMTEKFFHAIISSSSEFPPQLRSVCHCLYQVVSQRFPQNSIGAVGSAMFLRFINPAIVSPYEAGILDKKPPPRIERGLKLMSKILQSIANHVLFTKEEHMRPFNDFVKSNFDAARRFFLDIASDCPTSDAVNHSLSFISDGNVLALHRLLWNNQEKIGQYLSSNRDHKAVGRRPFDKMATLLAYLGPPEHK				SAC (%), relative soft agar colony forming ability ([1]; clone #8, relatively low (L) mRNA level): 5%; average size of the soft agar colony [1, 5]: medium; Colonies/10^3 cells (number of colonies found in soft agar) [1, 5]: 37 Colonies/10^3 cells; SAC (%), relative soft agar colony forming ability [1, 3]: 0.4%; Colonies/10^3 cells (number of colonies found in soft agar) [1, 4]: 3 Colonies/10^3 cells; ability to form soft agar colonies (in words) [1]: greatly reduced; cell morphology [2]: differed significantly
